± gives the standard deviation of the averaged measurements.
Experiment: total protein half-life in vivo (active degradation + dilution); higher = more stable protein
[1] = E. coli NCM3722 delta-clpP delta-lon delta-hslV, growth: N-lim chemostat, doubling time 6 h
[2] = E. coli NCM3722 delta-clpP, growth: N-lim chemostat, doubling time 6 h
[3] = E. coli NCM3722 delta-hslV, growth: N-lim chemostat, doubling time 6 h
[4] = E. coli NCM3722 delta-lon, growth: N-lim chemostat, doubling time 6 h
[5] = E. coli NCM3722 delta-smpB, growth: N-lim chemostat, doubling time 6 h
[6] = wild type E. coli NCM3722, growth: C-lim chemostat, doubling time 3 h
[7] = wild type E. coli NCM3722, growth: C-lim chemostat, doubling time 6 h
[8] = wild type E. coli NCM3722, growth: C-lim chemostat, doubling time 12 h
[9] = wild type E. coli NCM3722, growth: N-lim chemostat, doubling time 6 h
[10] = wild type E. coli NCM3722, growth: N-lim chemostat, doubling time 12 h
[11] = wild type E. coli NCM3722, growth: P-lim chemostat, doubling time 6 h
[12] = wild type E. coli NCM3722, growth: P-lim chemostat, doubling time 12 h

Sequence: MISVTLSQLTDILNGELQGADITLDAVTTDTRKLTPGCLFVALKGERFDAHDFADQAKAGGAGALLVSRPLDIDLPQLIVKDTRLAFGELAAWVRQQVPARVVALTGSSGKTSVKEMTAAILSQCGNTLYTAGNLNNDIGVPMTLLRLTPEYDYAVIELGANHQGEIAWTVSLTRPEAALVNNLAAAHLEGFGSLAGVAKAKGEIFSGLPENGIAIMNADNNDWLNWQSVIGSRKVWRFSPNAANSDFTATNIHVTSHGTEFTLQTPTGSVDVLLPLPGRHNIANALAAAALSMSVGATLDAIKAGLANLKAVPGRLFPIQLAENQLLLDDSYNANVGSMTAAVQVLAEMPGYRVLVVGDMAELGAESEACHVQVGEAAKAAGIDRVLSVGKQSHAISTASGVGEHFADKTALITRLKLLIAEQQVITILVKGSRSAAMEEVVRALQENGTC
- total protein half-life in vivo [1]: 4.74 ± 0.18 h
- total protein half-life in vivo [2]: 4.41 ± 0.27 h
- total protein half-life in vivo [3]: 5.24 ± 0.92 h
- total protein half-life in vivo [4]: 4.44 ± 0.34 h
- total protein half-life in vivo [5]: 4.68 ± 0.057 h
- total protein half-life in vivo [6]: 3.37 ± 0.67 h
- total protein half-life in vivo [7]: 6.24 ± 1.3 h
- total protein half-life in vivo [8]: 9.83 ± 0.28 h
- total protein half-life in vivo [9]: 4.48 ± 0.31 h
- total protein half-life in vivo [10]: 7.03 ± 0.19 h
- total protein half-life in vivo [11]: 5.79 ± 0.27 h
- total protein half-life in vivo [12]: 10.2 ± 1.7 h

Sequence: MITHISPLGSMDMLSQLEVDMLKRTASSDLYQLFRNCSLAVLNSGSLTDNSKELLSRFENFDINVLRRERGVKLELINPPEEAFVDGRIIRALQANLFAVLRDILFVYGQIHNTVRFPNLNLDNSVHITNLVFSILRNARALHVGEAPNMVVCWGGHSINENEYLYARRVGNQLGLRELNICTGCGPGAMEAPMKGAAVGHAQQRYKDSRFIGMTEPSIIAAEPPNPLVNELIIMPDIEKRLEAFVRIAHGIIIFPGGVGTAEELLYLLGILMNPANKDQVLPLILTGPKESADYFRVLDEFVVHTLGENARRHYRIIIDDAAEVARQMKKSMPLVKENRRDTGDAYSFNWSMRIAPDLQMPFEPSHENMANLKLYPDQPVEVLAADLRRAFSGIVAGNVKEVGIRAIEEFGPYKINGDKEIMRRMDDLLQGFVAQHRMKLPGSAYIPCYEICT [P0ADR8]
- total protein half-life in vivo [1]: 5.75 ± 1.1 h
- total protein half-life in vivo [2]: 4.95 ± 0.11 h
- total protein half-life in vivo [3]: 5.02 ± 0.07 h
- total protein half-life in vivo [4]: 5.1 ± 0.26 h
- total protein half-life in vivo [5]: 4.58 ± 0.19 h
- total protein half-life in vivo [6]: 3.03 ± 0.13 h
- total protein half-life in vivo [7]: 6.01 ± 0.13 h
- total protein half-life in vivo [8]: 11.3 ± 0.31 h
- total protein half-life in vivo [9]: 5.07 ± 0.029 h
- total protein half-life in vivo [10]: 9.48 ± 0.11 h
- total protein half-life in vivo [11]: 5.93 ± 0.55 h
- total protein half-life in vivo [12]: 11.9 ± 0.48 h

Sequence: MITIRDVARQAGVSVATVSRVLNNSTLVSADTREAVMKAVSELDYRPNANAQALATQVSDTIGVVVMDVSDAFFGALVKAVDLVAQQHQKYVLIGNSYHEAEKERHAIEVLIRQRCNALIVHSKALSDDELAQFMDNIPGMVLINRVVPGYAHRCVCLDNLSGARMATRMLLNNGHQRIGYLSSSHGIEDDAMRKAGWMSALKEQDIIPPESWIGAGTPDMPGGEAAMVELLGRNLQLTAVFAYNDNMAAGALTALKDNGIAIPLHLSIIGFDDIPIARYTDPQLTTVRYPIASMAKLATELALQGAAGNIDPRASHCFMPTLVRRHSVATRQNAAAITNSTNQAM
- total protein half-life in vivo [1]: 5.93 h
- total protein half-life in vivo [2]: 3.96 h
- total protein half-life in vivo [7]: 4.74 ± 0.55 h
- total protein half-life in vivo [8]: 8.13 ± 1.9 h
- total protein half-life in vivo [12]: 10.9 h

Sequence: MITLWGRNNSTNVKKVLLTLEELELPYEQILAGREFGINHDADFLAMNPNGLVPLLRDDESDLILWESNAIVRYLAAQYGQKRLWIDSPARRAEAEKWMDWANQTLSNAHRGILMGLVRTPPEERDQAAIDASCKECDALFALLDAELAKVKWFSGDEFGVGDIAIAPFIYNLFNVGLTWTPRPNLQRWYQQLTERPAVRKVVMIPVS [P0ACA7]
- total protein half-life in vivo [1]: 5.15 ± 0.42 h
- total protein half-life in vivo [2]: 4.47 ± 0.4 h
- total protein half-life in vivo [3]: 5.27 ± 1.5 h
- total protein half-life in vivo [4]: 4.6 ± 0.45 h
- total protein half-life in vivo [5]: 4.53 ± 0.24 h
- total protein half-life in vivo [6]: 2.9 ± 0.27 h
- total protein half-life in vivo [7]: 6.21 ± 0.49 h
- total protein half-life in vivo [8]: 9.3 ± 0.54 h
- total protein half-life in vivo [9]: 4.49 ± 0.48 h
- total protein half-life in vivo [10]: 7.89 ± 0.23 h
- total protein half-life in vivo [11]: 5.74 ± 0.36 h
- total protein half-life in vivo [12]: 12.1 ± 0.25 h

Sequence: MITNTKLDPIETASVDELQALQTQRLKWTLKHAYENVPMYRRKFDAAGVHPDDFRELSDLRKFPCTTKQDLRDNYPFDTFAVPMEQVVRIHASSGTTGKPTVVGYTQNDIDNWANIVARSLRAAGGSPKDKIHVAYGYGLFTGGLGAHYGAERLGATVIPMSGGQTEKQAQLIRDFQPDMIMVTPSYCLNLIEELERQLGGDASGCSLRVGVFGAEPWTQAMRKEIERRLGITALDIYGLSEVMGPGVAMECLETTDGPTIWEDHFYPEIVNPHDGTPLADGEHGELLFTTLTKEALPVIRYRTRDLTRLLPGTARTMRRMDRISGRSDDMLIIRGVNVFPSQLEEEIVKFEHLSPHYQLEVNRRGHLDSLSVKVELKESSLTLTHEQRCQVCHQLRHRIKSMVGISTDVMIVNCGSIPRSEGKACRVFDLRNIVGA
- total protein half-life in vivo [1]: 4.99 ± 0.39 h
- total protein half-life in vivo [6]: 0.692 ± 0.075 h
- total protein half-life in vivo [7]: 0.955 ± 0.08 h
- total protein half-life in vivo [8]: 1.21 ± 0.14 h
- total protein half-life in vivo [12]: 0.624 h

Sequence: MIVAFCLYKYFPFGGLQRDFMRIASTVAARGHHVRVYTQSWEGDCPKAFELIQVPVKSHTNHGRNAEYYAWVQNHLKEHPADRVVGFNKMPGLDVYFAADVCYAEKVAQEKGFLYRLTSRYRHYAAFERATFEQGKSTKLMMLTDKQIADFQKHYQTEPERFQILPPGIYPDRKYSEQIPNSREIYRQKNGIKEQQNLLLQVGSDFGRKGVDRSIEALASLPESLRHNTLLFVVGQDKPRKFEALAEKLGVRSNVHFFSGRNDVSELMAAADLLLHPAYQEAAGIVLLEAITAGLPVLTTAVCGYAHYIADANCGTVIAEPFSQEQLNEVLRKALTQSPLRMAWAENARHYADTQDLYSLPEKAADIITGGLDG
- total protein half-life in vivo [1]: 6.84 ± 0.81 h
- total protein half-life in vivo [2]: 7.01 ± 1.2 h
- total protein half-life in vivo [3]: 6.71 ± 0.8 h
- total protein half-life in vivo [4]: 5.95 ± 0.33 h
- total protein half-life in vivo [5]: 5.9 ± 0.47 h
- total protein half-life in vivo [6]: 3.115 ± 0.015 h
- total protein half-life in vivo [7]: 6.72 ± 0.35 h
- total protein half-life in vivo [8]: 11.8 ± 2.6 h
- total protein half-life in vivo [9]: 6.2 ± 0.56 h
- total protein half-life in vivo [10]: 12.3 ± 1.8 h
- total protein half-life in vivo [11]: 6.25 ± 0.29 h
- total protein half-life in vivo [12]: 12.2 ± 0.98 h

Sequence: MIVFSSLQIRRGVRVLLDNATATINPGQKVGLVGKNGCGKSTLLALLKNEISADGGSYTFPGSWQLAWVNQETPALPQAALEYVIDGDREYRQLEAQLHDANERNDGHAIATIHGKLDAIDAWSIRSRAASLLHGLGFSNEQLERPVSDFSGGWRMRLNLAQALICRSDLLLLDEPTNHLDLDAVIWLEKWLKSYQGTLILISHDRDFLDPIVDKIIHIEQQSMFEYTGNYSSFEVQRATRLAQQQAMYESQQERVAHLQSYIDRFRAKATKAKQAQSRIKMLERMELIAPAHVDNPFRFSFRAPESLPNPLLKMEKVSAGYGDRIILDSIKLNLVPGSRIGLLGRNGAGKSTLIKLLAGELAPVSGEIGLAKGIKLGYFAQHQLEYLRADESPIQHLARLAPQELEQKLRDYLGGFGFQGDKVTEETRRFSGGEKARLVLALIVWQRPNLLLLDEPTNHLDLDMRQALTEALIEFEGALVVVSHDRHLLRSTTDDLYLVHDRKVEPFDGDLEDYQQWLSDVQKQENQTDEAPKENANSAQARKDQKRREAELRAQTQPLRKEIARLEKEMEKLNAQLAQAEEKLGDSELYDQSRKAELTACLQQQASAKSGLEECEMAWLEAQEQLEQMLLEGQSN
- total protein half-life in vivo [1]: 6.02 ± 0.54 h
- total protein half-life in vivo [2]: 4.89 ± 0.15 h
- total protein half-life in vivo [3]: 2.697 ± 0.016 h
- total protein half-life in vivo [4]: 3.16 ± 0.084 h
- total protein half-life in vivo [5]: 2.95 ± 0.13 h
- total protein half-life in vivo [6]: 2.39 ± 0.12 h
- total protein half-life in vivo [7]: 4.3 ± 0.48 h
- total protein half-life in vivo [8]: 6.5 ± 0.051 h
- total protein half-life in vivo [9]: 2.95 ± 0.15 h
- total protein half-life in vivo [10]: 3.94 ± 0.5 h
- total protein half-life in vivo [11]: 3.58 ± 0.25 h
- total protein half-life in vivo [12]: 6.36 ± 0.25 h

Reference: the supplement of paper PMC11246515
